Test results from paper PMC6780499, “Characterization, Recombinant Production and Structure-Function Analysis of NvCI, A Picomolar Metallocarboxypeptidase Inhibitor from the Marine Snail Nerita versicolor” (Marine Drugs, 2019).
No end group written: not given here.

How the values were obtained:
[1] = target: T1, pCPB (Sus scrofa, UniProt P09955); assay: Ki determination, tight-binding inhibition of metallocarboxypeptidase; assay type: biochemical; details: tight-binding equation fit, equilibrium conditions; substrate AAFA 0.1mM; preincubation 15 min; 37 °C; means (n = 3) ± SD
T1 sequence (P09955 111-416): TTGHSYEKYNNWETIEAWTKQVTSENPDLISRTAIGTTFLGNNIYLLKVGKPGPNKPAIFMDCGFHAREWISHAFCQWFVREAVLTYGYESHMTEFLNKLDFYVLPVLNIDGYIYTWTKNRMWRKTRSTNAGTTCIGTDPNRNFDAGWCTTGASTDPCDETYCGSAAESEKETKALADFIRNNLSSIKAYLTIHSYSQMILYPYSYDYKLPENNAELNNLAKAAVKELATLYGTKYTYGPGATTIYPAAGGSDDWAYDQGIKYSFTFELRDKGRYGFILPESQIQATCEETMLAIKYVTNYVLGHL
Experimental: (§1) Inhibitory activities against CPA- and CPB-type forms (bovine and human variants of CPA1, CPA2, CPA4, CPB1, and TAFI) were assayed for all extracts, subject to the experimental conditions that enzyme (E), substrate (S) and inhibitor (I) concentrations as well as the [I]/[E] ratio and preincubation time followed the requirements for tight-binding inhibitor assays. Similar approaches were followed to measure the activities of proteases of different catalytic types, like pepsin, papain, trypsin and subtilisin [45, 46, 47, 48]. All assays were performed in triplicate at 25 °C in a multiplexed manner. For 96-well assays an iEMS spectrophotometer reader/dispenser FM (Labsystems, Finland) was used with a final reaction volume of 250 μL. For cuvette assays, a Cary 400 Bio spectrophotometer (Varian Inc., Palo Alto, CA, USA) spectrophotometer was used with a final reaction volume of 1 ml. The reactions were followed at 5 s intervals for 5 min and recorded as initial velocities. In the protease inhibition assays, mixtures of activity buffer, biological sample and enzyme were preincubated at 25 °C for 10min, before substrate addition. The assay conditions were as follows: for CPA-like enzymes, 7.0nM CPA, 0.1mM AAFP substrate in 20mM Tris-HCl pH 7.5, 500mMNaCl, 1% v/v dimethyl sulfoxide (DMSO), 0.05% w/v BRIJ-35 was used. For CPB-like enzymes, CPB 3.0nM CPB, 0.1mM AAFA substrate and activity buffer of 20 mM Tris-HCl pH [50].
(§2) The Ki values of natural and recombinant NvCI against bCPA1, hCPA1, hCPA2, rat CPA3, hCPA4, hCPB1, bTAFI, hTAFI, hCPD and hCPZ were determined by measuring the enzymatic residual activity (Vi/V0 = a) at different inhibitor concentrations and using a fixed enzyme and substrate concentrations as described above, where vi and v0 are the fraction of enzymatic activity in the presence and absence of inhibitor, respectively, in terms of initial velocities. The determination of Ki values was carried out on equilibrium conditions ([E0]/Ki ≤ 10), using a previously determined preincubation time of 15 min, required to establish enzyme-inhibitor equilibrium. Working temperature was 37 °C. The best estimates of Ki values were obtained by fitting the experimental data to the equation for tight-binding inhibitors by non-linear regression using the GraphPad Prisma 5 software (GraphPad Software, Inc., San Diego, CA, USA) at p < 0.05. The real Ki values against each of these A/B-type MCPs were calculated according to the equation described by Morrison and Copeland [19, 20].

[2] = target: T2, hCPZ (Homo sapiens, UniProt Q66K79); assay: as above; assay type: biochemical; details: NI: No inhibitory activity detected for the [I]0 range from 1 nM to 1 mM
T2 sequence (Q66K79 19-652): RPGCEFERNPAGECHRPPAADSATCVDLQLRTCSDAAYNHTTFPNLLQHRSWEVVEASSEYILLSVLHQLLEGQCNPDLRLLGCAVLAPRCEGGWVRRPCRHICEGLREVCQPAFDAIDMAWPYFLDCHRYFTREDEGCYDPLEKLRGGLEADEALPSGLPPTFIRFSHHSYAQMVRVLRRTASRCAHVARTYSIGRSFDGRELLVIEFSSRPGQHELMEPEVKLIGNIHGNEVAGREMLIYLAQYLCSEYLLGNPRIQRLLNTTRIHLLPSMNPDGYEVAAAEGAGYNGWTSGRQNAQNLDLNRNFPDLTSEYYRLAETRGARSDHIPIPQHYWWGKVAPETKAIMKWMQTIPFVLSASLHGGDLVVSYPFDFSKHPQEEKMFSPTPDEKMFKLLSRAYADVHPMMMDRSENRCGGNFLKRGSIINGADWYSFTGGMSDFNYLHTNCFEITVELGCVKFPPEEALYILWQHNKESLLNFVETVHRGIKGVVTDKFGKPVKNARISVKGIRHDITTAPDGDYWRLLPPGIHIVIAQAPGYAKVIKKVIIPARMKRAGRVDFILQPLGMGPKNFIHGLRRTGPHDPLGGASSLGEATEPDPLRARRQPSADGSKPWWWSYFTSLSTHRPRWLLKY
Experimental: as §1, §2

NvCI: 53-residue, three-disulphide proteinaceous metallocarboxypeptidase inhibitor from the marine snail Nerita versicolor; major isoform; UniProt P86912 (FHVPDDRPCINPGRCPLVPDATCTFVCKAADNDFGYECQHVWTFEGQRVGCYA; disulfide (positions not given here); also: three disulphides, pairing not given here; UniProt P86912 1-53, looked up)
Ki [1]: 0.00065 ± 1.22e-05 µM
Ki [2]: > 1000 µM
